# Legend:
# [1] = molecular target: serum-derived protein (Zucker rat); test: solid phase capture ELISA of Zucker rat skin perfusate, 30 minutes after perfusion, 1 mM Ca^2+
# [2] = molecular target: serum-derived protein (Zucker rat); test: solid phase capture ELISA of Zucker rat skin perfusate, 60 minutes after perfusion, 10 mM Ca^2+
# [3] = molecular target: serum-derived protein (Zucker rat); test: solid phase capture ELISA of Zucker rat skin perfusate, 2 minutes after perfusion, 1 mM Ca^2+
# [4] = molecular target: serum-derived protein (Zucker rat); test: solid phase capture ELISA of Zucker rat skin perfusate, 90 minutes after perfusion, 10 mM Ca^2+
# [5] = molecular target: serum-derived protein (Zucker rat); test: solid phase capture ELISA of Zucker rat skin perfusate, 30 minutes after perfusion, 10 mM Ca^2+
# [6] = molecular target: serum-derived protein (Zucker rat); test: solid phase capture ELISA of Zucker rat skin perfusate, 2 minutes after perfusion, 10 mM Ca^2+
# [7] = molecular target: serum-derived protein (Zucker rat); test: solid phase capture ELISA of Zucker rat skin perfusate, 90 minutes after perfusion, 1 mM Ca^2+
# [8] = molecular target: serum-derived protein (Zucker rat); test: solid phase capture ELISA of Zucker rat skin perfusate, 30 minutes after start of perfusion, 1 mM Ca^2+
# wild-type human matrix metalloprotease 1 (hMMP-1), purified and trypsin-activated, sequence (P03956 100-469): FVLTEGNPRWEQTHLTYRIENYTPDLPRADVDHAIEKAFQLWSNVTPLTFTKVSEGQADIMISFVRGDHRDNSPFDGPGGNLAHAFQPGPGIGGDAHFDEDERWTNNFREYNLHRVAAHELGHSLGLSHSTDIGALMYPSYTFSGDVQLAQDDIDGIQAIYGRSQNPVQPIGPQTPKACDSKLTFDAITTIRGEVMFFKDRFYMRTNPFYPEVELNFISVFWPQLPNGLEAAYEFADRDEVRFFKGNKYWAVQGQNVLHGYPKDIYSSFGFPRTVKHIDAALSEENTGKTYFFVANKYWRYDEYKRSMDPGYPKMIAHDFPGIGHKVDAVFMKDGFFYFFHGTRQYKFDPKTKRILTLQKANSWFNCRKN
uncomplexed protein as a fraction of the starting concentration (fraction of the starting concentration) [1],percent of uncomplexed protein (of the starting concentration) [2] [%],percent of uncomplexed protein (of the starting concentration) [3] [%],percent of uncomplexed protein (of the starting concentration) [4] [%],percent of uncomplexed protein (of the starting concentration) [5] [%],percent of uncomplexed protein (of the starting concentration) [6] [%],uncomplexed protein as a fraction of the starting concentration (fraction of the starting concentration) [7],uncomplexed protein as a fraction of the starting concentration (fraction of the starting concentration) [8],Substance
< 0.1,30,45,13,50,90,,,"MMP-1 mutant GVSK (G159V/S208K), purified and trypsin-activated (from UniProt P03956 100-469) (enzyme)"
,,90,,,,0.33,0.5,"wild-type human matrix metalloprotease 1 (hMMP-1), purified and trypsin-activated (from UniProt P03956 100-469) (enzyme)"

# Source: US20140219992A1
